This is an account of results in patent US20210388068A1.

Broadly, the EC50 (read off the curve) is the concentration at which the effect is half-maximal.

Test [1] has as its target MBP-CfaE-N Arg145Ala mutant (enterotoxigenic Escherichia coli (ETEC)) (UniProt P25734). The test is described as follows: ELISA on plate-bound MBP-CfaE-N Arg145Ala mutant, OD405.
Test [2] deals with MBP-CfaE-N Asn127Ala mutant (enterotoxigenic Escherichia coli (ETEC)) (UniProt P25734). The experiment in a line: ELISA on plate-bound MBP-CfaE-N Asn127Ala mutant, OD405. On the technique in general: In an ELISA, binding on a coated surface is turned into a signal by an enzyme label.
The target of test [3] is MBP-CfaE-N Thr91Ala mutant (enterotoxigenic Escherichia coli (ETEC)) (UniProt P25734). The experiment in a line: ELISA on plate-bound MBP-CfaE-N Thr91Ala mutant, OD405.
For test [4], the target named is MBP-CfaE-N Arg67Ala mutant (enterotoxigenic Escherichia coli (ETEC)) (UniProt P25734). The test is described as follows: ELISA on plate-bound MBP-CfaE-N Arg67Ala mutant, OD405.

B1: anti-CfaE HuMab 68-90 (antibody, human IgG1, V domains shown)
VH: QVQLQQWGAGLLKPSETLSLTCAVYGGSFSAYYWSWIRQPPGKGLEWIGEINHSGNTNYNPSLESRVTISVDTSKNQVSLKQSSVTAADTAVYYCARNWGPNAFDIWGRGTMVTVSS
VL: DIQMTQSPSSVSASVGDRVTITCRASQDITSWLVWYQHKPGKAPKLLIYAASSLQSGVPSRFSGSGSGTDFTLTISSLQPEDFATYYCQQANIFPYTFGQGTKLEIK
On to B1, for which the EC50 (read off the curve) in test [1] is 0.03 µg/mL; in test [2] it was 0.01 µg/mL; in test [3], 0.02 µg/mL; in test [4] it was 0.04 µg/mL.

B2: anti-CfaE HuMab 68-48 (antibody, human IgG1, V domains shown)
VH: QVQLQQWGAGLLKPSETLSLTCAVYGGSFSGYSWSWIRQSPGKGLEWIGEIYHSGSTNYNPSLKSRVTISGDTSKNQFSLKLSSVTAADTAVYYCARENLQGYYYYGMDVWGQGTTVTVSS
VL: AIQLTQSPSSLSASVGDRVTITCRASQGISSSLAWYQQKPGKAPKLLIYDASSLESGVPSRFSGSGSGTDFTLTISSLQPEDFATYYCQQFNSYPRTFGQGTKVEIK
With B2, the EC50 (read off the curve) in test [1] came to 0.03 µg/mL; in test [4], 0.04 µg/mL.

B3: anti-CfaE HuMab 68-61 (antibody, human IgG1, V domains shown)
VH: QVQLVQSGAEVKNPGSSVRVSCEASGGTFSSFAISWVRQAPGQGLEWMGRIIPILDIVKYAQRFQGRVTISADKSTSTAYMELSSLRSEGTAVYYCARDDIAGSDFDIWGQGTMVTVSS
VL: DIQMTQSPSSLSASVGDRVTITCRASQGISSWLAWYQQKPEKAPKSLIYAASSLQSGVPSRFSGSGSGTDFTLTISSLQPEDFATYYCQQYTSYPYTFGQGTKLEIK
As for B3, the EC50 (read off the curve) in test [1] is 0.03 µg/mL; in test [4], 0.04 µg/mL.
